According to patent US20240392004A1:
Values belong to the substance of their own block, whether it stands above or below them.

Experiments:
Test in all cases: cell-based or functional assay
[1] = target: T1, IFN-γ receptor (IFNGR1 and IFNGR2) (UniProt P15260)
T1 sequence (looked up) 1: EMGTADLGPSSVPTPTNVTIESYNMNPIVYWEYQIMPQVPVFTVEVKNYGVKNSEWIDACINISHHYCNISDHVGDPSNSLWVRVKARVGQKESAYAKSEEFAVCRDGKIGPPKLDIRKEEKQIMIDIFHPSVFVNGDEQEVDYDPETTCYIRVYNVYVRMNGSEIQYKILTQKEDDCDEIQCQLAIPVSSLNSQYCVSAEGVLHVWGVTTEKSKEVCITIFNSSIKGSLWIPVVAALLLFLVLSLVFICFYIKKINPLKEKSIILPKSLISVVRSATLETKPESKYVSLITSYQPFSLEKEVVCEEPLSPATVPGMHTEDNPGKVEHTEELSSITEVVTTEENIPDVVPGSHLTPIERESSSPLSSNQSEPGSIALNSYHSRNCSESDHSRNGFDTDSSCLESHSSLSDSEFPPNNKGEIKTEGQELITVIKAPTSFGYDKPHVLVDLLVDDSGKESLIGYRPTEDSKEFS
T1 sequence (looked up) 2: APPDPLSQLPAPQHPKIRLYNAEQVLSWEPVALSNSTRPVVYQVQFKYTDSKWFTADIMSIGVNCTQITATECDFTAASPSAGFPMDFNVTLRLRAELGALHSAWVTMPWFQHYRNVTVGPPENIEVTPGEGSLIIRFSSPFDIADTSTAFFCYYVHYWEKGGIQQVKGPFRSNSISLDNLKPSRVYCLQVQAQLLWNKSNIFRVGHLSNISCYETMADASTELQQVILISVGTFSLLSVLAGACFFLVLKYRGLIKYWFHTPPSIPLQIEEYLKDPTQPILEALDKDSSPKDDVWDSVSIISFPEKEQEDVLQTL

[2] = target: IL-10 receptor (hIL-10Rα and hIL-10Rβ) (human) (UniProt Q13651)
[3] = target: human IL-12 receptor complex (IL-12Rβ1 and IL-12Rβ2) (human) (UniProt P42701)
[4] = target: IL-23 receptor complex (IL-12Rβ1 and IL-23R) (UniProt P42701)
Chain of IL-23 receptor complex (IL-12Rβ1 and IL-23R) (Q5VWK5 24-629 limits assumed, chain 2 of 2, other chains not shown): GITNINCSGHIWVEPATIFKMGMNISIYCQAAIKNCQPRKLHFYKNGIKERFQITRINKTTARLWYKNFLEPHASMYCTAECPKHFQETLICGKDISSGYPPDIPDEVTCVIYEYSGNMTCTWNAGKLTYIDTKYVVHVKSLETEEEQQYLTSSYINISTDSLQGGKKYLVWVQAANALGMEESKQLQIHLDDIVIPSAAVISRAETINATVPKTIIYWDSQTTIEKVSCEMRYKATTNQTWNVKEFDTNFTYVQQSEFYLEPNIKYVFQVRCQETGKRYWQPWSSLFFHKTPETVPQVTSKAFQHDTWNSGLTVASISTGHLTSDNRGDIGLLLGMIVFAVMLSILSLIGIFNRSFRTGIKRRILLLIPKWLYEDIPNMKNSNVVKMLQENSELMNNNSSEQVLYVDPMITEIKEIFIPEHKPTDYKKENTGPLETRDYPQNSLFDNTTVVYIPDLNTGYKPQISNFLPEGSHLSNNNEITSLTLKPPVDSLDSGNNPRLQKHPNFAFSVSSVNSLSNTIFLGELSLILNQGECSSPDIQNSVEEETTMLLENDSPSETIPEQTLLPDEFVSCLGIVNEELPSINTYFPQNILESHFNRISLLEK

Chain of recombinant human IL-12 (P29459 23-219 limits assumed): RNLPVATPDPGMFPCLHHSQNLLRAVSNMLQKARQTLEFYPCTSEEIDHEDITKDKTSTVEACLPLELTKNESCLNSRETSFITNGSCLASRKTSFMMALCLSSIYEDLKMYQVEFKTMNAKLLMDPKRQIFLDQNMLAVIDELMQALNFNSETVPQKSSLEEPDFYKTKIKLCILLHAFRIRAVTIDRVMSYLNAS
Chain of recombinant human IL-12 (P29460 23-328 limits assumed): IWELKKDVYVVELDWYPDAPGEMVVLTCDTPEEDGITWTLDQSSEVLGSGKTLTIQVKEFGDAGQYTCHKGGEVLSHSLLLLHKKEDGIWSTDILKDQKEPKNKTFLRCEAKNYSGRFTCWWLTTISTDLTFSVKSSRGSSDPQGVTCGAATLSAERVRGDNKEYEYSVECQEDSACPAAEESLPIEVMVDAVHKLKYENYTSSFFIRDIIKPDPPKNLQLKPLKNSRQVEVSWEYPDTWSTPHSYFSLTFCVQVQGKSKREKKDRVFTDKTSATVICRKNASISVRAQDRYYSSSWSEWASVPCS
Chain of recombinant human IFN-γ (free state) (P01579 24-166 limits assumed): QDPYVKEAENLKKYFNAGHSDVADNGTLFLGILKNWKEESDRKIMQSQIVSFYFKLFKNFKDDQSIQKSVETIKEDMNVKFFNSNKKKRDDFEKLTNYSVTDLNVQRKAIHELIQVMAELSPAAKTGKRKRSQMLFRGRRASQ
Chain of human IL-12 receptor complex (IL-12Rβ1 and IL-12Rβ2) (human) (Q99665 24-862, chain 2 of 2, other chains not shown): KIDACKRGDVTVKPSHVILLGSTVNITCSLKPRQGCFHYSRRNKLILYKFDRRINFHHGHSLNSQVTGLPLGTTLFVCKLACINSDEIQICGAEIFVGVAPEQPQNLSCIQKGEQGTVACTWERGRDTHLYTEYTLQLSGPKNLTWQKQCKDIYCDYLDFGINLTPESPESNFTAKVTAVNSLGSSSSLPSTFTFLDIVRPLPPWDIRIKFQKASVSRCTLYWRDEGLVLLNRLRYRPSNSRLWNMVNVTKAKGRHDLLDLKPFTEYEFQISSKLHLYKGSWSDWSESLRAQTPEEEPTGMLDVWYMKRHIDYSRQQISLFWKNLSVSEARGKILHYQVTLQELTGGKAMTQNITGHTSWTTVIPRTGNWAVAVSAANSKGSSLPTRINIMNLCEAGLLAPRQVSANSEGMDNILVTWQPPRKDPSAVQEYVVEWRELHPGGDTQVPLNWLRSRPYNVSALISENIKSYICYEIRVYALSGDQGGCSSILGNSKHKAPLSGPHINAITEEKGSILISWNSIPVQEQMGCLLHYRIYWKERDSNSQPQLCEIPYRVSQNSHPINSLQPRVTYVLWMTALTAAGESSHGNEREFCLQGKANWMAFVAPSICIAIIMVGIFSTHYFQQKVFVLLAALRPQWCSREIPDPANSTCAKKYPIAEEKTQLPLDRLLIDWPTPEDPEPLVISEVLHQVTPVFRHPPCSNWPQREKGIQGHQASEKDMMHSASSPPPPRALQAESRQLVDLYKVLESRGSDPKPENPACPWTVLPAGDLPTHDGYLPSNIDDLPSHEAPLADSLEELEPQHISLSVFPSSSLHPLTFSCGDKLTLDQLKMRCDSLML
Chain of recombinant human IL-23 (free state) (Q9NPF7 20-189 limits assumed): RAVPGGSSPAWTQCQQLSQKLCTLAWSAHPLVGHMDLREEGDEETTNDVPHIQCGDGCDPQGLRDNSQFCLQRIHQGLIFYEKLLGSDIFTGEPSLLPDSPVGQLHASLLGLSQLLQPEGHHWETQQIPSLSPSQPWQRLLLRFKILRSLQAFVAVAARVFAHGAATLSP
Chain of recombinant human IL-23 (free state) (P29460 23-328 limits assumed): as the sequence (P29460 23-328 limits assumed) above
Chain of IL-10 receptor (hIL-10Rα and hIL-10Rβ) (human) (Q13651 22-578, chain 1 of 2): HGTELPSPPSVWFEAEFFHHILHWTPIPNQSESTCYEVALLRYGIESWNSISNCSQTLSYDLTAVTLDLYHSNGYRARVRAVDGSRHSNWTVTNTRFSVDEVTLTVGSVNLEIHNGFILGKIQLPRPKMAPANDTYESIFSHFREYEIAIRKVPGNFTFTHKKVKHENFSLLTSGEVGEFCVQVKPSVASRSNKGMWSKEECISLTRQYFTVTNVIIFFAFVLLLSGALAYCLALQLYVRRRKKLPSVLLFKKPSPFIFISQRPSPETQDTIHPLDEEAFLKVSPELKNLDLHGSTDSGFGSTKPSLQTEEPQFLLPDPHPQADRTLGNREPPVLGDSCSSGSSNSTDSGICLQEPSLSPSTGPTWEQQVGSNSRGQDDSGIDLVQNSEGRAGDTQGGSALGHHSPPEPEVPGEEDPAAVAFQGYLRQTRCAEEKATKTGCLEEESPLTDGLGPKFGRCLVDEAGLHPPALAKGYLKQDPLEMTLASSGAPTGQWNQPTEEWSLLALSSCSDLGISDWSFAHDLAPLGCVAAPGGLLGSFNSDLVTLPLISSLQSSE
Chain of IL-10 receptor (hIL-10Rα and hIL-10Rβ) (human) (Q08334 20-325, chain 2 of 2, further chain): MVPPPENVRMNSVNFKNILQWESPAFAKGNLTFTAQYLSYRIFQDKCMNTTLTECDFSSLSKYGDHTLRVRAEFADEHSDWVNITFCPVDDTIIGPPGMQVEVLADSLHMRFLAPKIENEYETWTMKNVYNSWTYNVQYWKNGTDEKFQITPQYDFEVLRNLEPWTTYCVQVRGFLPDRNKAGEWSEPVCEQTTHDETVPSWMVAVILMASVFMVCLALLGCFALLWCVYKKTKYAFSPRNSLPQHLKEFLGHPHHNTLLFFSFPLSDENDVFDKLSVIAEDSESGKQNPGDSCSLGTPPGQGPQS

IFN-γ signal transduction, HEK-IFN-γ [1]: 100%
IFN-γ signal transduction, HEK-IFN-γ cells, % of rIFN-γ [1]: 100%
IFN-γ signal transduction, HEK-IFN-γ-PD-1 [1]: 100%
IFN-γ signal transduction, HEK-IFN-γ-TIGIT [1]: 100%
IFN-γ signal transduction, HEK-PD-1-IFN-γ cells, % of rIFN-γ [1]: 100%
Substance: recombinant human IFN-γ (free state) (from UniProt P01579 24-166) (ligand)

IL-10 signal transduction, HEK-IL-10 cells, % of rIL-10 [2]: 100%
IL-10 signal transduction, HEK-PD-1-IL-10 cells, % of rIL-10 [2]: 100%
Substance: recombinant human IL-10 (free state) (from UniProt P22301 19-178) (ligand)

IFN-γ release, activated PBMC [3]: 2300 ng/mL
IL-12 signal transduction, HEK IL-12 [3]: 100%
IL-12 signal transduction, HEK-IL-12 [3]: 100%
IL-12 signal transduction, HEK-IL-12-PD-1 [3]: 100%
IL-12 signal transduction, HEK-IL-12-PD-1 (high) [3]: 100%
IL-12 signal transduction, HEK-IL-12-PD-1 (low) [3]: 100%
IL-12 signal transduction, HEK-IL-12-TIGIT [3]: 100%
IL-12 signal transduction, HEK-IL-12 cells, % of rIL-12 [3]: 100%
IL-12 signal transduction, HEK-PD-1-IL-12 [3]: 100%
IL-12 signal transduction, HEK-PD-1-IL-12 cells, % of rIL-12 [3]: 100%
Substance: recombinant human IL-12 (from UniProt P29459 23-219; P29460 23-328) (ligand)

IL-23 signal transduction, HEK-IL-23 cells, % of rIL-23 [4]: 100%
IL-23 signal transduction, HEK-PD-1-IL-23 cells, % of rIL-23 [4]: 100%
Substance: recombinant human IL-23 (free state) (from UniProt Q9NPF7 20-189; P29460 23-328) (ligand)
